Assays:
[1] = biological target: GST-mDab1 PTB domain fusion protein (mouse); assay: fluorescence polarization competition against the fluorescein-labeled APP peptide, 1.1 µM PTB domain
[2] = biological target: fluorescein-labeled APP peptide (Mus musculus (Mouse)) (UniProt P12023); assay: fluorescence polarization, about 1 nM fluorescein-labeled APP peptide titrated with GST-PTB
[3] = biological target: APP synthetic peptide containing the NPXY region (non-phosphorylated) (Mus musculus (Mouse)) (UniProt P12023); assay: fluorescence polarization
[4] = biological target: APP peptide with isoleucine in place of Pro-2; assay: substitution scan on a cellulose peptide array, radiolabeled GST-PTB
[5] = biological target: APP peptide with arginine in place of Pro-2; assay: as above
[6] = biological target: APP peptide with lysine in place of Pro-2; assay: as above
[7] = biological target: activated Src (Src527F) (UniProt P00523); assay: co-immunoprecipitation with anti-Src from Rat-1 fibroblasts overexpressing both, immunoblot
[8] = biological target: GST-mDab1 PTB domain fusion protein (mouse); assay: fluorescence polarization competition

APP synthetic peptide containing the NPXY region (non-phosphorylated) (from UniProt P12023 754-770)
competitor concentration of equal effect [1]: 2 µM

GST-mDab1 PTB domain fusion protein (from UniProt O75553 29-197)
Kd [2]: 550 nM
Kd [3]: 500 nM
percent binding against the wild-type APP peptide [4]: 40%
percent binding against the wild-type APP peptide [5]: 40%
percent binding against the wild-type APP peptide [6]: 40%

mDab1 p80 (mDab555 product), tyrosine phosphorylated (from UniProt P97318 1-588)
percent of the phosphorylated mDab1 of the total cell lysate immunoprecipitated with Src [7]: 1%

phosphorylated APP peptide (from UniProt P12023 754-770)
competitor concentration of equal effect [1]: 500 µM
fold reduction of affinity against the non-phosphorylated APP peptide [8]: 250 fold

Reference: patent publication US7250505
